# Laboratory results: US9212226B2, “Amino acid sequences directed against CXCR4 and other GPCRs and compounds comprising the same” (Ablynx N.V., priority 2008, dated 2015)
# “Also recorded” adds a separate entry of the source.
# T1: CXCR3 (Homo sapiens, UniProt P49682)
# T1 sequence (P49682 1-368): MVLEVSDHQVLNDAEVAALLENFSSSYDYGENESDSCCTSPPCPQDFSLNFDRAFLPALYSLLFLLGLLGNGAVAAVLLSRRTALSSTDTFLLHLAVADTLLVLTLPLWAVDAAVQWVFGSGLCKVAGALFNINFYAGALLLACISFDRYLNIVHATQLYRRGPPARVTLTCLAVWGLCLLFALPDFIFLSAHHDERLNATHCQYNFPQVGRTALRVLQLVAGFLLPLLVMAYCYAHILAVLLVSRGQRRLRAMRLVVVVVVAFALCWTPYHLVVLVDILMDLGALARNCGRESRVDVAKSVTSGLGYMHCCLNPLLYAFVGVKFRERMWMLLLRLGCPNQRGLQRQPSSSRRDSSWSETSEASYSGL
# Legend:
# CXCR4 (N119A) = CXCR4 (N119A) (Homo sapiens, UniProt P61073, N119A); test: [125I]-CXCL12 competition binding on the constitutively active CXCR4 mutant N119A; settings: for binding to / displacement of [125I]-CXCL12 from CXCR4 (N119A): highest test concentration 2 μM, n=3
# Chain of CXCR4 (N119A) (P61073 whole entry N119A): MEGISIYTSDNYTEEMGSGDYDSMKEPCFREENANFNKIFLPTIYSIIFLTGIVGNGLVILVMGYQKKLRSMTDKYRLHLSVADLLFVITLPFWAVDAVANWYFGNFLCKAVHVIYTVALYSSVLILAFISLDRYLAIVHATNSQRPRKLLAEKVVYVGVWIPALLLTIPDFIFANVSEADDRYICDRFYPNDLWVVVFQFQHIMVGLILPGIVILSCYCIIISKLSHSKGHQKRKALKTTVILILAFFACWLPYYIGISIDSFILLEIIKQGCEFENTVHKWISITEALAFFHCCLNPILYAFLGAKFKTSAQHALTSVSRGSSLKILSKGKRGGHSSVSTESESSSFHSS
# Procedure: HEK293T cells were maintained at 37° C. in a humidified 5% CO2, 95% air atmosphere in Dulbecco's modified Eagle's medium (DMEM) containing 2 mM L-glutamine, 50 IU/ml penicillin, 50 μg/ml streptomycin, and 10% (v/v) fetal calf serum. Jurkat cells were cultured in a humidified 5% CO2, 95% air atmosphere in a 1:1 mixture of Dulbecco's modified Eagle's medium (DMEM) and Ham's F12 medium containing 2 mM L-glutamine, 50 IU/ml penicillin, 50 μg/ml streptomycin, and 10% (v/v) fetal calf serum. […] [^125 I]-Labelling— Radiolabeling of Nanobodies with ^125I was performed using the Iodo-gen method (Pierce, Rockford, Ill.) according to the manufacturer's protocol. ^125I-labeled Nanobodies was separated from free iodine (>99%) using a Sephadex G-25 gel filtration column (Amersham Biosciences, Piscataway, N.J.). […] Competition Binding Assays— Membranes from HEK293T cells transiently expressing CXCR3 or CXCR4 were prepared 48 h after transfection as follows. Cells were washed and scraped from the cell culture dishes with ice-cold PBS containing 1 mm EDTA. The scraped cells were pelleted at 1500×g for 10 min at 4° C. The pellet was washed and then resuspended in ice-cold membrane buffer (15 mM Tris, pH 7.5, 1 mM EGTA, 0.3 mM EDTA, and 2 mM MgCl2). The cell suspension was homogenized by 10 strokes at 1200 rpm using a Teflon-glass homogenizer and rotor and further subjected to three freeze-thaw cycles using liquid nitrogen. Membranes were separated by centrifugation at 40,000 g for 25 min at 4° C. The membrane pellet was washed and resuspended in ice-cold Tris-sucrose buffer (20 mM Tris, pH 7.4, and 250 mM sucrose) and frozen in liquid nitrogen. The total protein was determined using a Bradford assay (Bio-Rad). Periplasmas (1:10) or ligands were pre-incubated with membranes in binding buffer (50 mM HEPES (pH 7.4), 1 mM CaCl2, 5 mM MgCl2, 100 mM NaCl, 0.5% bovine serum albumin) supplemented with 0.5% BSA for 1 h at 22° C. before the addition of [^125I]-CXCL12 (40 pM) or [^125I]-238D2 (3 nM) or [^125I]-238D4 (3 nM) for additional 2 h at 22° C. […] Membranes were then harvested over polyethylenimine (0.5%)-treated Whatman GF/C filter plates and washed three times with ice cold binding buffer containing 500 mM NaCl. Plates were counted by liquid scintillation. Inositol Phosphate Accumulation Assay— 24 hours post transfection with pcDNA3.1-CXCR4 and pcDNA1-HA-mG {alpha} qi5 (see Verzijl et al, 2008 supra), 250.000 cells were seeded into 24-wells plates and labelled overnight using inositol-free minimal essential medium supplemented with 1 μCi myo-[2-^3H]-inositol. The next day, the cells were washed once to remove not incorporated myo-[2-^3H]-inositol. […] The accumulated inositol phosphates were isolated by anion exchange chromatography and counted by liquid scintillation. […]
# CXCR3 = target: T1, CXCR3; test: CRE/β-galactosidase reporter gene selectivity screen, CXCR3; type: cell-based; settings: up to 2.5, forskolin 3 μM, agonist at 50-80% Emax
# Procedure: (§1) Data are shown as means±S.E.M. (n=2-3).
# (§2) HEK293T cells were maintained at 37° C. in a humidified 5% CO2, 95% air atmosphere in Dulbecco's modified Eagle's medium (DMEM) containing 2 mM L-glutamine, 50 IU/ml penicillin, 50 μg/ml streptomycin, and 10% (v/v) fetal calf serum. Jurkat cells were cultured in a humidified 5% CO2, 95% air atmosphere in a 1:1 mixture of Dulbecco's modified Eagle's medium (DMEM) and Ham's F12 medium containing 2 mM L-glutamine, 50 IU/ml penicillin, 50 μg/ml streptomycin, and 10% (v/v) fetal calf serum. […] [^125 I]-Labelling— Radiolabeling of Nanobodies with ^125I was performed using the Iodo-gen method (Pierce, Rockford, Ill.) according to the manufacturer's protocol. ^125I-labeled Nanobodies was separated from free iodine (>99%) using a Sephadex G-25 gel filtration column (Amersham Biosciences, Piscataway, N.J.). […] Competition Binding Assays— Membranes from HEK293T cells transiently expressing CXCR3 or CXCR4 were prepared 48 h after transfection as follows. Cells were washed and scraped from the cell culture dishes with ice-cold PBS containing 1 mm EDTA. The scraped cells were pelleted at 1500×g for 10 min at 4° C. […] The total protein was determined using a Bradford assay (Bio-Rad). […] Plates were counted by liquid scintillation. […] The accumulated inositol phosphates were isolated by anion exchange chromatography and counted by liquid scintillation. […]
# CCR5 = CCR5 (Homo sapiens, UniProt P51681); test: CRE/β-galactosidase reporter gene selectivity screen, CCR5; type: cell-based; settings: up to 2.5, forskolin 3 μM, agonist at 50-80% Emax
# Chain of CCR5 (P51681 whole entry): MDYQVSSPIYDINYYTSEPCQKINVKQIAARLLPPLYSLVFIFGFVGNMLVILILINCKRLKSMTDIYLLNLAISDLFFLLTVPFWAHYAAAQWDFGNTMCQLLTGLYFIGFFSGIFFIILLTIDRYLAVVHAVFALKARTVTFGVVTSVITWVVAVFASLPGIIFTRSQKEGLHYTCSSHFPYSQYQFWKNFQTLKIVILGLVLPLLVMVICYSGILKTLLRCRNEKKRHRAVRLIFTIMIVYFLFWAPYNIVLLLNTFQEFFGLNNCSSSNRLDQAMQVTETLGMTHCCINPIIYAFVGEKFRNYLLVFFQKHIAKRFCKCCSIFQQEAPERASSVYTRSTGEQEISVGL
# Procedure: as §1, §2
# β2-adrenoceptors = target: T2, β2-adrenoceptors (Homo sapiens, UniProt P07550); test: CRE/β-galactosidase reporter gene selectivity screen, endogenous β2-adrenoceptors of HEK293T cells; type: cell-based; settings: Nanobody 2.5 μM, salbutamol 100 nM, no forskolin
# T2 construct: (or mock for the investigation of endogenously expressed β2 adrenoceptors); endogenous in cells; host or cells: HEK293T cells (mock-transfected)
# Procedure: as §1, §2
binding affinity at CXCR4 (N119A) compared to the wild type receptor (CXCR4 (N119A)),binding to / displacement of [125I]-CXCL12 from CXCR4 (N119A) (CXCR4 (N119A)),Molecule,effect on agonist-induced response at CXCR3 (CXCR3),effect on agonist-induced response at CCR5 (CCR5),effect on activation of endogenous β2-adrenoceptors by salbutamol (β2-adrenoceptors)
somewhat less,displace; also recorded: able to bind,"238D4: Nanobody (VHH) raised against human CXCR4, SEQ ID NO: 239 (protein, Nanobody, Nanobody constructs or fragments thereof) VHH: EVQLMESGGGLVQAGGSLRLSCAASGRTFNNYAMGWFRRAPGKEREFVAAITRSGVRSGVSAIYGDSVKDRFTISRDNAKNTLYLQMNSLKPEDTAVYTCAASAIGSGALRRFEYDYSGQGTQVTVSS",do not act as agonists or antagonists; also recorded: do not alter,do not act as agonists or antagonists; also recorded: do not alter,do not act as agonists or antagonists; also recorded: did not inhibit
somewhat less,displace; also recorded: able to bind,"238D2: Nanobody (VHH) raised against human CXCR4, SEQ ID NO: 238 (protein, Nanobody, Nanobody constructs or fragments thereof) VHH: EVQLVESGGGLVQTGGSLRLSCAASGFTFSSYAMSWVRQAPGKGLEWVSGIKSSGDSTRYAGSVKGRFTISRDNAKNMLYLQMYSLKPEDTAVYYCAKSRVSRTGLYTYDNRGQGTQVTVSS",do not act as agonists or antagonists; also recorded: do not alter,do not act as agonists or antagonists; also recorded: do not alter,do not act as agonists or antagonists; also recorded: did not inhibit
